Positions count from the first letter of the chain named. Like-named read-outs stand apart in the source and are kept apart here. One block for each binder: values may come before it.
Experiments:
[1] = biological target: T1, human NPR1 full-length protein overexpressed on CHO-K1 cells (human, UniProt P16066 33-1061); experiment: cell-based or functional assay
T1 sequence: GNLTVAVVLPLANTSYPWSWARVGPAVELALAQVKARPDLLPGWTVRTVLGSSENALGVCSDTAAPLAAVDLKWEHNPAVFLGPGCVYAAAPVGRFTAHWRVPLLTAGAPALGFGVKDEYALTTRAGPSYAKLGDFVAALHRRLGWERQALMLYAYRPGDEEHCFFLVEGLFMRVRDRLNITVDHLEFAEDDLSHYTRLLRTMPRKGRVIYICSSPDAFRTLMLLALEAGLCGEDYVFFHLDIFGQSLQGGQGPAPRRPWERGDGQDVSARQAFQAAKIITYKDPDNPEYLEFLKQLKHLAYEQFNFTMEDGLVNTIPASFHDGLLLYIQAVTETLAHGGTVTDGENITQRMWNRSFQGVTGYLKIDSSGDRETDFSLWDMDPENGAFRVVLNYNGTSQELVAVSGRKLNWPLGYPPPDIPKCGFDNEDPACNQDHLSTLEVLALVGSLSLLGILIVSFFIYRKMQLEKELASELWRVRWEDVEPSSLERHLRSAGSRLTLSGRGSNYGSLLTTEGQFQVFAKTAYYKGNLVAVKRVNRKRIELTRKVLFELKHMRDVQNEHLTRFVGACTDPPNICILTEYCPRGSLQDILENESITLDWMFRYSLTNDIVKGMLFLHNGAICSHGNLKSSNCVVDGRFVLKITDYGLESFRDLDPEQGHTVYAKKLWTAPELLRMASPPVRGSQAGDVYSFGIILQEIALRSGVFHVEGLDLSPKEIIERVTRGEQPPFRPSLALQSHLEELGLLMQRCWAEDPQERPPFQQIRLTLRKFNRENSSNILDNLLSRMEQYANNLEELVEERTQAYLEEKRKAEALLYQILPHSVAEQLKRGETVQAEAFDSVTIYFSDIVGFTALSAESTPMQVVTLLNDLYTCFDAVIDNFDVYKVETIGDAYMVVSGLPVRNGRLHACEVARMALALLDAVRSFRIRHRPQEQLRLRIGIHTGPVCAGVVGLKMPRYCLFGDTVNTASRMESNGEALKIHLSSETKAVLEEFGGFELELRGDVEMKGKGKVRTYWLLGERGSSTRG

[2] = biological target: T1, human NPR1 full-length protein …; experiment: cell-based or functional assay; remark: listed apart in the source
[3] = biological target: T1, human NPR1 full-length protein …; experiment: cell-based or functional assay; remark: listed apart in the source
hNPR2 = biological target: T2, hNPR2 (human, UniProt P20594 23-458, limits assumed); experiment: ELISA, plate coated with 4 µg/mL antigen
T2 construct: Commercial protein; construct not described; also called hNPR2 antigen
T2 sequence (looked up): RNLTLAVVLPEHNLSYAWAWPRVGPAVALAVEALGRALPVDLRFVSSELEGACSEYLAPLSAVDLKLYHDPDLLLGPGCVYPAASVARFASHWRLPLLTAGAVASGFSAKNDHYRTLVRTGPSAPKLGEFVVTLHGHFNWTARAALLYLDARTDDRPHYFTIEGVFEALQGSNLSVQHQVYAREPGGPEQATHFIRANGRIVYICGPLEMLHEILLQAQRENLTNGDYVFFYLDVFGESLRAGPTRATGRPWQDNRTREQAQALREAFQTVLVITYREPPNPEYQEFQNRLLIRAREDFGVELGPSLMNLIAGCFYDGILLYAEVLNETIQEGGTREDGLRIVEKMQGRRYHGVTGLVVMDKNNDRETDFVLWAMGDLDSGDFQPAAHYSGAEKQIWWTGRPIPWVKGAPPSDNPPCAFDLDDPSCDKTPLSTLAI

[4] = biological target: T3, fusion protein of the human NPR1 protein extracellular domain and human-IgG1-Fc (human); experiment: ELISA, plate coated with 4 µg/mL hNPR1 antigen
T3 construct: also called hNPR1-hFc; hNPR1
T3 sequence (chain, as listed by the source limits assumed): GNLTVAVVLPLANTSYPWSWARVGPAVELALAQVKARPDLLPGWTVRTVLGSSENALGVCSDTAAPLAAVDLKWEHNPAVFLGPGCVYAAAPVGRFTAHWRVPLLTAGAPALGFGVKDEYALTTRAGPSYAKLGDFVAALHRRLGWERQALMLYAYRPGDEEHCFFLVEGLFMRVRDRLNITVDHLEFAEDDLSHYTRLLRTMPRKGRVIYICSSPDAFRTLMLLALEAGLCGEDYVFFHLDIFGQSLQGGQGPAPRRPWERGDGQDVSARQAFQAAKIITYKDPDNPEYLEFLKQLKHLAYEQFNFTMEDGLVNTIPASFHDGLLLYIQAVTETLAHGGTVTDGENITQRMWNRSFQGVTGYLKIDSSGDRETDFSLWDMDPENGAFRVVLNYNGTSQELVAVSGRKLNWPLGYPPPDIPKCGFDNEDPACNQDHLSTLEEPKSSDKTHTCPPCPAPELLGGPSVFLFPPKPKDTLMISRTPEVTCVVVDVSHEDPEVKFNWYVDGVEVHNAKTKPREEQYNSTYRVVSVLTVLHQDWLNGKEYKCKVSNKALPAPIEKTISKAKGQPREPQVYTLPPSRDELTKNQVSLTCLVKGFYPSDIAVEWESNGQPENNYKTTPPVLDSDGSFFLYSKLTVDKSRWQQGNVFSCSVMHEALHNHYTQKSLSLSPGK

[5] = biological target: T1, human NPR1 full-length protein …; experiment: cell-based or functional assay; remark: listed apart in the source

cGMP production: EC50 [1]: 32.4 nM
cGMP production: Emax [1]: 0.59
cGMP production: Emin [1]: 0.068
B1: Hu127H4L5 (antibody, human IgG1, kappa, L234A L235A, V domains shown)
VH: EAYLVQSGAEVKKPGASVKVSCKASGYSFTGYFMNWVRQAPGKGLEWMGRINPYSGDTFYNQKFKGRVTLTVDKSTSTVYMELSSLRSEDTAVYYCARRGYGNRGYWYFDVWGQGTTVTVSS
VL: NIQLTQSPSSLSASVGDRVTITCRASESVDSYGNSFMHWYQQKPGKAPKVLIYLASTLESGVPSRFSGSGSRTDFTLTISSLQPEDFATYYCQQNNEDPLTFGQGTKLEIKR

cGMP production: EC50 [1]: 38.5 nM
cGMP production: Emax [1]: 0.54
cGMP production: Emin [1]: 0.073
B2: Hu127H4L6 (antibody, human IgG1, kappa, L234A L235A, V domains shown)
VH: B1 VH
VL: B1 VL with D17Q, A47P

cGMP production: EC50 [1]: 45.6 nM
cGMP production: Emax [1]: 0.6
cGMP production: Emin [1]: 0.077
B3: Hu127H4L1 (antibody, human IgG1, kappa, L234A L235A)
heavy: not shown
light: DIVMTQSPDSLAVSLGERATINCRASESVDSYGNSFMHWYQQKPGQPPKVLIYLASTLESGVPDRFSGSGSRTDFTLTISSLQAEDVAVYYCQQNNEDPLTFGQGTKLEIKRTVAAPSVFIFPPSDEQLKSGTASVVCLLNNFYPREAKVQWKVDNALQSGNSQESVTEQDSKDSTYSLSSTLTLSKADYEKHKVYACEVTHQGLSSPVTKSFNRGEC

cGMP production: EC50 [1]: 48.6 nM
cGMP production: Emax [1]: 0.46
cGMP production: Emin [1]: 0.072
B4: Hu127H8L3 (antibody, human IgG1, kappa, L234A L235A)
heavy: not shown
light: B3 light with D1N, M4L

cGMP production: EC50 [1]: 56.5 nM
cGMP production: Emax [1]: 0.54
cGMP production: Emin [1]: 0.066
B5: Hu127H7L3 (antibody, human IgG1, kappa, L234A L235A)
heavy: not shown
light: B3 light with D1N, M4L

cGMP production: EC50 [1]: 55.8 nM
cGMP production: Emax [1]: 0.5
cGMP production: Emin [1]: 0.081
B6: Hu127H7L1 (antibody, human IgG1, kappa, L234A L235A)
heavy: not shown
light: B3 light

cGMP production: EC50 [1]: 51.4 nM
cGMP production: Emax [1]: 0.48
cGMP production: Emin [1]: 0.087
B7: Hu127H4L3 (antibody, human IgG1, kappa, L234A L235A)
heavy: not shown
light: B3 light with D1N, M4L

cGMP production: EC50 [1]: 62.6 nM
cGMP production: Emax [1]: 0.45
cGMP production: Emin [1]: 0.083
B8: Hu127H8L1 (antibody, human IgG1, kappa, L234A L235A)
heavy: not shown
light: B3 light

cGMP production: EC50 [2]: 54.9 nM
cGMP production: Emax [2]: 0.57
cGMP production: Emin [2]: 0.23
B9: CHI-102 (antibody, human IgG1, kappa, V domains shown)
VH: DVKLVESGEGLVKPGGSLKLSCAASGFTFSTYAMSWVRQTPEKRLEWVAYISRGGDYIYYADTVKGRFTISRDNARNTLYLQMSSLKSEDTAMYYCTRDQTTVVVHWYFDVWGTGTTVTVSS
VL: QIVLTQSPAIMSASPGEKVTMTCSASSSINYMHWYQQKPGTSPKRWIYDTSKLASGVPARFSGSGSGTSYSLTISSMEAGDAATYYCHQRNSYTFGGGTKLEIKR

cGMP production: EC50 [2]: 48.5 nM
cGMP production: Emax [2]: 0.61
cGMP production: Emin [2]: 0.16
B10: Hu102H3L6 (antibody, human IgG1, kappa, L234A L235A, V domains shown)
VH: B9 VH with K19R, T40A, E42G, R76K, T78S, S84N, K87R, S88A, M93V, T114Q
VL: DIQLTQSPSSLSASVGDRVTITCSASSSINYMHWYQQKPGKSPKRWIYDTSKLASGVPSRFSGSGSGTDYTLTISSLQPEDFATYYCHQRNSYTFGGGTKVEIKR

cGMP production: EC50 [2]: 43.6 nM
cGMP production: Emax [2]: 0.59
cGMP production: Emin [2]: 0.21
B11: Hu102H5L6 (antibody, human IgG1, kappa, L234A L235A, V domains shown)
VH: DVKLVESGEGLVKPGGSLRLSCAASGFTFSTYGMSWVRQAPGKRLEWVAYISRGGDYIYYADTVKGRFTISRDNAKNSLYLQMNSLRAEDTAVYYCTRDQTTVVVHWYFDVWGQGTTVTVSS
VL: B10 VL

cGMP production: EC50 [2]: 45.9 nM
cGMP production: Emax [2]: 0.65
cGMP production: Emin [2]: 0.17
Ratio (without ANP) of NPR1 antigens remaining on the cell surface after endocytosis to the initial number, 10 min, 20 µg/mL [3]: 1.14 ratio
Ratio (without ANP) of NPR1 antigens remaining on the cell surface after endocytosis to the initial number, 1 h, 20 µg/mL [3]: 0.58 ratio
Ratio (without ANP) of NPR1 antigens remaining on the cell surface after endocytosis to the initial number, 7 hrs, 20 µg/mL [3]: 0.53 ratio
Ratio (without ANP) of NPR1 antigens remaining on the cell surface after endocytosis to the initial number, 24 hrs, 20 µg/mL [3]: 0.73 ratio
EC50 [4]: 1.32 nM
B12: Hu102H4L6 (antibody, human IgG1, kappa, L234A L235A, V domains shown)
VH: B11 VH with T31S, G33A, T63S, T91S
VL: B10 VL
notes: Humanized, human IgG1 LALA/kappa; also called Hul02H4L6
binding result (hNPR2): no binding (tested: 20 µg/mL (highest concentration))

cGMP production: EC50 [5]: 116 nM
cGMP production: Emax [5]: 0.43
cGMP production: Emin [5]: 0.22
B13: Hu135H1L1 (antibody, human IgG1, kappa, L234A L235A, V domains shown)
VH: B11 VH with S52N, R53S, D56N, Q100R, V103I
VL: DIQLTQSPSSLSASVGDRVTITCSASSSLNFMHWYQQKPGKSPKRWIYDTSKLASGVPSRFSGSGSGTDYTLTISSLQPEDFATYYCHQRSSTFGGGTKVEIKR

cGMP production: EC50 [5]: 186 nM
cGMP production: Emax [5]: 0.45
cGMP production: Emin [5]: 0.143
B14: Hu135H2L1 (antibody, human IgG1, kappa, L234A L235A, V domains shown)
VH: B11 VH with T28S, F29I, S52N, R53S, D56N, Q100R, V103I
VL: B13 VL

cGMP production: EC50 [1]: 42.6 nM
cGMP production: Emax [1]: 0.51
cGMP production: Emin [1]: 0.068
B15: Hu127H7L5 (antibody, human IgG1, kappa, L234A L235A)
heavy: not shown
light: NIQLTQSPSSLSASVGDRVTITCRASESVDSYGNSFMHWYQQKPGKAPKVLIYLASTLESGVPSRFSGSGSRTDFTLTISSLQPEDFATYYCQQNNEDPLTFGQGTKLEIKRTVAAPSVFIFPPSDEQLKSGTASVVCLLNNFYPREAKVQWKVDNALQSGNSQESVTEQDSKDSTYSLSSTLTLSKADYEKHKVYACEVTHQGLSSPVTKSFNRGEC

cGMP production: EC50 [1]: 36.6 nM
cGMP production: Emax [1]: 0.42
cGMP production: Emin [1]: 0.068
B16: Hu127H8L6 (antibody, human IgG1, kappa, L234A L235A)
heavy: not shown
light: B15 light with D17Q, A47P

cGMP production: EC50 [1]: 35.5 nM
cGMP production: Emax [1]: 0.49
cGMP production: Emin [1]: 0.063
B17: Hu127H7L6 (antibody, human IgG1, kappa, L234A L235A)
heavy: not shown
light: B15 light with D17Q, A47P

cGMP production: EC50 [1]: 42 nM
cGMP production: Emax [1]: 0.43
cGMP production: Emin [1]: 0.065
B18: Hu127H8L5 (antibody, human IgG1, kappa, L234A L235A)
heavy: not shown
light: B15 light

Source: patent publication EP4725963A1 (Jiangsu Hengrui Pharmaceuticals Co., Ltd., dated 2026)
